Tests used:
NOD mice = assay: Type 1 diabetes incidence in NOD mice; assay type: in vivo, mouse; settings: Study III; p<0.001
Experimental: The effect of C1ORF32 ECD-Fc treatment on modulation of disease incidence was tested in NOD mice, which spontaneously develop a T1D disease. In NOD mice, autoreactive CD4+ can be observed within the β-islets as early as 2 weeks of age (Yang et al., Immunity. 1996 February; 4(2):189-94), and by 10 weeks of age, when the treatment with C1ORF32 ECD-Fc (SEQ ID NO: 42) began in the present experiments, NOD mice develop peri-insulitis and β-cell loss (Jimeno et al., Immunology and Cell Biology. (2010) 88, 734-745).
Materials: C1ORF ECD-Fc (SEQ ID NO:42) was used in these studies, as described below. Control Ig was mouse IgG2a from BioXcell (Cat# BE0085). NOD mice were purchased from Jackson labs, and blood glucose was measured via sampling a small drop of blood from the tail vein.
Methods: Six week old NOD mice were purchased from Jackson labs. […] Blood glucose levels were monitored weekly from 8 weeks of age until the mice reached […] of age as detailed below. Mice were considered diabetic upon having two consecutive blood glucose readings of >250 mg/dL. Diabetic mice were sacrificed on the day of the second high glucose level reading. Blood glucose levels were obtained from the tail vein, and the level of blood glucose measured via use of a OneTouch. […]

[1] = system: healthy human skin transplanted onto beige-SCID mice; assay: Humanized psoriasis model, human skin xenografts on beige-SCID mice; assay type: in vivo, mouse; settings: IHC; vs PBS
Text: In this model, psoriasis is induced in xenotransplants of healthy human skin transplanted onto beige severe combined immunodeficiency (SCID) mice followed by intradermal (i.d.) injection of IL-2 enriched Peripheral Blood Mononuclear Cells (PBMCs) isolated from blood of psoriasis patients (Nickoloff, 1995; Wrone-Smith, 1996 Gilhar et al., 2002, 2006, 2011). The activity of these compounds was compared to that of Enbrel, a TNF inhibitor which is an approved biological drug for treatment of psoriasis. As a control for model robustness, we used dexamethasone, a steroid with suppressive effects on inflammatory cytokines and chemokines such as TNF-alpha and interferon-gamma which cause severe psoriasis. All treatments were administered intradermally, except for dexamethasone which was given topically.
2.2. Study Protocol A) Healthy human skin pieces with a width of 0.4 mm and surface area of 1.5×1.5 cm were provided from residual skin of routine plastic surgery procedures from the Plastic Surgery Department of the Rambam Medical Center, Israel. In addition, 20 mL blood samples were taken from psoriatic patients. B) Seventy (70) beige-severe combined immunodeficient mice (SCID) (weight ˜20-25 g) were included in this study. Normal healthy human donor skin was transplanted onto the beige-SCID mice as previously described (Nickoloff et al., 1995; Wrone-Smith, 1996; Gilhar et al., 2002, 2006, 2011; Kalish et al., 2009) and the mice were divided into 7 groups. C) Peripheral Blood Mononuclear Cells (PBMCs) isolated from psoriatic patients' blood were cultured in the presence of IL-2 [Prospec, 100 U/mL of RPMI 1640 media, 10% human AB serum (Sigma, St. Louis, Mo.), 1% glutamine, 1% antibiotics (media components; Biological Industries, Kibbutz Beit Haemeck, Israel)] for 14 days, as previously described (Gilhar et al, 2002). D) Four weeks following engraftment, each mouse was injected intra-dermally (i.d.) into the grafted skin lesion, with 1×10^7 activated allogeneic enriched PBMCs from psoriatic patients (FIG. 20). Cells from different psoriasis patients were equally distributed between treatment groups so that each patient is represented in each treatment group. E) On the day of PBMCs injection into the skin grafts, mice were divided randomly into treatment groups (n=9-10 mice per group) and administration of all drugs started (FIG. 20). All tested compounds including the vehicle were given intradermally (intralesional), three times a week, except for dexamethasone which was given topically for 14 consecutive days (Table 3).
F) Twenty eight days after starting the injections and treatment, skin was harvested (FIG. 20). Grafts were analyzed for the following psoriatic parameters by histology: epidermal thickening (acanthosis), suprapapillary epidermal thinning (papillomatosis), hyperkeratosis, parakeratosis, orthokeratosis, agranulosis-hypogranulosis, appearance of neutrophils in the upper spinous layer or in the corneal cell layer—Munro microabscess, regular elongation of rete ridges, angiogenesis, edema and dilated tortuous blood vessels in the dermal papilla and mononuclear cell infiltrate in the papillary dermis. Epidermal thickness was measured as detailed below, and HLA-DR, ICAM-1, Ki-67 and immune infiltrates (anti-CD3 stain) were evaluated by immunohistochemistry (IHC).
The entire skin graft was excised and placed in 10% formal saline overnight. Then, the specimens were place in 70% ethanol and were embedded according to the standard H&E protocol. Histological assessment of the skin grafts was performed by light microscopy and evaluated by two blinded observers [the second observer evaluated random slides (about 25% of all slides) to compare the data obtained by the first observer. […] Epidermal thickness was determined with an ocular micrometer at a minimum of 50 points along the epidermis selected to represent points of maximal and minimal thickness.
Representative grafts were allocated for IHC analysis. […]

B1: C1ORF32 ECD-Fc (SEQ ID NO:42): human-mouse fusion protein: human C1ORF32 ECD fused to mouse immunoglobulin Fc (SEQ ID NO:42) (protein)
chain: LQVTVPDKKKVAMLFQPTVLRCHFSTSSHQPAVVQWKFKSYCQDRMGESLGMSSTRAQSLSKRNLEWDPYLDCLDSRRTVRVVASKQGSTVTLGDFYRGREITIVHDADLQIGKLMWGDSGLYYCIITTPDDLEGKNEDSVELLVLGRTGLLADLLPSFAVEIMGSENLYFQGSGEPRGPTIKPCPPCKCPAPNLLGGPSVFIFPPKIKDVLMISLSPIVTCVVVDVSEDDPDVQISWFVNNVEVHTAQTQTHREDYNSTLRVVSALPIQHQDWMSGKEFKCKVNNKDLPAPIERTISKPKGSVRAPQVYVLPPPEEEMTKKQVTLTCMVTDFMPEDIYVEWTNNGKTELNYKNTEPVLDSDGSYFMYSKLRVEKKNWVERNSYSCSVVHEGLHNHHTTKSFSRTPGK
modifications: Fusion protein human C1ORF32-ECD fused to mouse IgG2a Fc
incidence of T1D in comparison to Control Ig and PBS (NOD mice): significantly decreased incidence of T1D
infiltration of T cells (CD3 positive cells) [1]: significant reduction
